± gives the uncertainty stated by the source.
Assay: amyloid nucleation score (Sup35N fusion, yeast selection) (log enrichment); library NNK3; higher = more nucleation; inactive = no reads after selection
Method in brief: (§1)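 Peptides of 20 random codons fused to Sup35N were expressed in psi-negative yeast, induced 24 hours with 100 μM copper sulfate, then grown 7 days at 30°C on medium lacking adenine and uracil. Input and output plasmid inserts were Illumina-sequenced. Nucleation score is the DiMSum log enrichment of output over input reads, centred on the mode score of non-aggregating sequences, excluding sequences with under 100 input reads. Random libraries had three technical output replicates.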

| Substance | amyloid nucleation score |
| --- | --- |
| NVFSS | inactive |

Assay: amyloid nucleation score (Sup35N fusion, yeast selection) (log enrichment); library NNK1; higher = more nucleation; inactive = no reads after selection
Method in brief: as §1

| Substance | amyloid nucleation score |
| --- | --- |
| AAGHVAVAIRNRVVIARSRT | 3.4 ± 0.11 |
| AAMCLLIWRACRISVDMHMC | -0.205 ± 0.27 |
| AANCTMMFKKPSWNVTRERV | 0.26 ± 0.34 |
| AARRLNELSSELKWMCSATD | -0.077 ± 0.4 |
| AAVMCAIDLIGLNFGLGNWK | 7.816 ± 0.052 |
| ACARTTDIFV | -1 ± 1.1 |
| ACDTS | 0.693 ± 0.45 |
| ACPVGTRFTVATTFRRMLCE | 0.312 ± 0.47 |
| ACWYLKRFLIMGKLSWS | -0.15 ± 0.3 |
| ADARVQGLSRLWGSGFNRLP | 0.53 ± 0.51 |
| ADCFCNRFNVICVKHYGSAR | 0.159 ± 0.42 |
| ADDACVSET | inactive |
| ADDGCSRNVCQTLYMSFLVN | -0.072 ± 0.35 |
| ADDVCSCQGFLYRDVFCATD | 0.531 ± 0.93 |
| ADIPCQNCVSYVRYFGLNVI | -0.094 ± 0.48 |
| ADLSISRWCLCGRNALGLFF | 5.12 ± 0.07 |
| ADSFSI | -0.118 ± 0.44 |
| ADTCGCGWDSRRKCFMGGYS | -0.187 ± 0.52 |
| AEHYPGIVVCLSLCDS | -1.77 ± 2.4 |
| AELSITASTNMESNLVNSIR | -1.69 ± 2.7 |
| AESLIKHLK | 0.334 ± 0.43 |

| Substance | amyloid nucleation score |
| --- | --- |
| AFAFEYCRTSRIFCQGMEWQ | 1.05 ± 0.6 |
| AFCSAAVQAEICEWCNSIYA | -0.431 ± 0.64 |
| AFDGVS | -0.096 ± 1.7 |
| AFDLTEVQFLRVVKS | -0.259 ± 0.44 |
| AFFSAKIKAPFNDVFGYGFV | 0.289 ± 0.33 |
| AFFYYIEQDSYTVRSIMI | -0.294 ± 0.42 |
| AFLIIMSGSGNCICLRSLVS | -0.385 ± 0.3 |
| AFMDKLMSPGEVIEVAL | 1.29 ± 0.84 |
| AFMYYTGATIMHLQSANGGL | 2.27 ± 0.17 |
| AFPPYRIFADRLYMSSPGPA | 0.961 ± 0.69 |
| AFRFHQHMACREL | 4.36 ± 0.055 |
| AFSANF | 0.779 ± 0.42 |
| AFVIFVYNKSIAQIWHFRGY | -0.797 ± 0.37 |
| AFVTSRPYWGNSVVEAHLVG | 1.69 ± 0.19 |
| AGCDNMIYMSTWVKWESN | 0.197 ± 0.31 |
| AGFSTHSSGCVGECVGQRT | 0.32 ± 0.69 |
| AGHSCQSTMTGCYTFHSYVW | -0.102 ± 0.49 |
| AGKCIVQYKGLKNVR | 0.91 ± 0.75 |
| AGLRVYKIKSFRLEDSVNAG | 1.49 ± 0.71 |
| AGLWYNWRECSFHRVVVGYP | 0.737 ± 0.55 |
| AGMCSIC | 0.155 ± 0.36 |

| Substance | amyloid nucleation score |
| --- | --- |
| AGRMEGYESEGPPGHA | 0.187 ± 0.39 |
| AGRRKSRSAVQREP | 0.528 ± 0.88 |
| AGSDGQGDGEQWRNHLRPIA | -0.294 ± 0.64 |
| AGSEVFEK | 0.073 ± 0.32 |
| AGWYASW | 0.142 ± 0.74 |
| AGYAYSGIVAGAYWIFCNYE | 1.12 ± 0.85 |
| AHTSYYTMSTSRTADGVKIS | 0.028 ± 0.31 |
| AHYRV | 0.014 ± 0.48 |
| AIEPHDGFWGVWSTLGVILI | 1.32 ± 0.93 |
| AIFFGGIGKVCVKLVLCVRL | 0.248 ± 0.27 |
| AIFKSITDPVLWSGLF | 0.562 ± 0.97 |
| AIFNTGNMWDTLRRHSGVHV | -0.059 ± 1.2 |
| AINLRLV | 0.23 ± 0.36 |
| AIPGGVTGTGWSSM | -0.221 ± 0.51 |
| AISDFMGHS | -0.825 ± 1.1 |
| AIYVNGCVCCISYLVPILMS | 3.61 ± 0.075 |
| AKMRMNNSFFFTVNWVLMNW | -0.461 ± 0.4 |
| AKSELHYSRFYFTLGVMKSL | -0.138 ± 0.48 |
| AKSVYILVR | inactive |
| AKVRKNYTFLHLSPLGRGFD | 0.321 ± 0.48 |
| AKYPMQRLLRFLFLVVR | 0.374 ± 0.48 |

| Substance | amyloid nucleation score |
| --- | --- |
| ALHVGLNSFPGMSRYV | 0.212 ± 0.89 |
| ALSDFGDKLSPPEDLRLEHW | 1.07 ± 0.62 |
| ALSPRVSSLGNFT | -0.691 ± 0.53 |
| ALVTVIHAPVFYLWNAFYLC | 7.396 ± 0.048 |
| AMLLLTCGL | 0.481 ± 0.74 |
| AMPYCGK | 0.575 ± 0.36 |
| AMWYTRRMQVENVKTVLSLM | -0.027 ± 0.34 |
| AMYFTWFVHFGAYRVRSIEK | 1.48 ± 0.48 |
| ANDFYVMYAEWKDCRNRVLF | 0.655 ± 0.66 |
| ANFAIFWSFYRGWCSFKIQS | 0.871 ± 0.5 |
| ANFFICFLHLVCTKIQSSLL | 1.77 ± 0.52 |
| ANQRSAGYPSGYKCTYYNRS | 0.838 ± 0.41 |
| APLYLHMWSCYSLMLSPSMG | -1.5 ± 2.4 |
| APRCKSIWS | -0.706 ± 0.59 |
| APSSKF | 0.062 ± 1.1 |
| AQYELLMQRNWYVGKDLVRG | -0.192 ± 0.42 |
| ARFVDYPCALLWARTSR | -0.375 ± 0.56 |
| ARGHGFQPVGPLGSVILMAR | -0.302 ± 0.68 |
| ARHRDALFRCEDMFGKVQYS | -0.296 ± 0.56 |
| ARRRF | -0.345 ± 1.7 |
| ARTGCHKVYLAAACSYGRFS | 0.188 ± 0.34 |
